In IntAct's records for PubMed 18477457:

B1: Protein pop-1 (Caenorhabditis elegans), Q10666 (parent)
chain: MMADEELGDEVKVFRRDEDADDDPMISGETSEQQLADDKKEAVMEAELDGAGRNPSIDVLKSAFPKVEPMSPSFPGLMSHFSPGYSAAALPMFMPLFMNPYAAALRSPSLMFPMGAMSPTFPMFPPSPVYGAAIAAAAAKQHFENMAPLNMRAGHPMNQMGMPPYMHPSSMAPQNVDRRAQGGGKAKKDDHVKKPLNAFMWFMKENRKALLEEIGNNEKQSAELNKELGKRWHDLSKEEQAKYFEMAKKDKETHKERYPEWSARENYAVNKKKTKKRRDKSIPSENNDQKKCRARFGVNNTEMWCKFCKRKKKCEYATDRSGGSDITDSQDGRGTSGAYSSSSESPSPKANAGIALTTQQQQAAMMHTMLMQMRLGSTTGASTHVPSPLASSSAGRSPLDANASDSESDVEEEEDEQIDPTVMQQTHDMLMQESMCTI
partner: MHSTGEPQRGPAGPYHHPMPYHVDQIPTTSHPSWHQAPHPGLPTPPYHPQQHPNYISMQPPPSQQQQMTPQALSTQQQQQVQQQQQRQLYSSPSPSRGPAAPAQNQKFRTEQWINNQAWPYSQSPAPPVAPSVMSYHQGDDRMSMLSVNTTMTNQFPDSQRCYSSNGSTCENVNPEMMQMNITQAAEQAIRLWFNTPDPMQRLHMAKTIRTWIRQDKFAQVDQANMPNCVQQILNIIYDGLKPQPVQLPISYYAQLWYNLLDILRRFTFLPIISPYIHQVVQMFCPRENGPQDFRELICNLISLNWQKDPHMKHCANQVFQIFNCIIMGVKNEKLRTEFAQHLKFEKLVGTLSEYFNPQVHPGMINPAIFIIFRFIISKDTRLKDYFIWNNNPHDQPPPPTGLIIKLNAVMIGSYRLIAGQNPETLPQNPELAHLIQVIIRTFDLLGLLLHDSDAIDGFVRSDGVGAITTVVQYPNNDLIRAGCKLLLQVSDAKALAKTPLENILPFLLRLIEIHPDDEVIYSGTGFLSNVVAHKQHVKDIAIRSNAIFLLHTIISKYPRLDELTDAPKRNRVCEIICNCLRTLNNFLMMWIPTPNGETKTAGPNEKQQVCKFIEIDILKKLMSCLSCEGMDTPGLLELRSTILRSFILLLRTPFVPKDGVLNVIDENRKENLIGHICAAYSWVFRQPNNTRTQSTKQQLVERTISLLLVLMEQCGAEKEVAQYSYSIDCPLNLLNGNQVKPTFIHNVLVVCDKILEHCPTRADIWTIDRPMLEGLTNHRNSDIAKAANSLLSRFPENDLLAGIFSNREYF
B2: Beta-catenin homolog sys-1 (Caenorhabditis elegans), Q9XVI2 (parent)
chain: B1 partner
partner: B1 chain

Variants of: B1
Conditions: with ctnh1_caeel sys-1, Q9XVI2

effect of a mutation on the interaction | Variant
disrupting interaction strength | MMADEELGEEVKVFRRDEDADDDPMISGETSEQQLADDKKEAVMEAELDGAGRNPSIDVLKSAFPKVEPMSPSFPGLMSHFSPGYSAAALPMFMPLFMNPYAAALRSPSLMFPMGAMSPTFPMFPPSPVYGAAIAAAAAKQHFENMAPLNMRAGHPMNQMGMPPYMHPSSMAPQNVDRRAQGGGKAKKDDHVKKPLNAFMWFMKENRKALLEEIGNNEKQSAELNKELGKRWHDLSKEEQAKYFEMAKKDKETHKERYPEWSARENYAVNKKKTKKRRDKSIPSENNDQKKCRARFGVNNTEMWCKFCKRKKKCEYATDRSGGSDITDSQDGRGTSGAYSSSSESPSPKANAGIALTTQQQQAAMMHTMLMQMRLGSTTGASTHVPSPLASSSAGRSPLDANASDSESDVEEEEDEQIDPTVMQQTHDMLMQESMCTI [D9E]

Variants of: B2
Conditions: with pop1_caeel pop-1, Q10666

effect of a mutation on the interaction | Variant
disrupting interaction strength | A533L
disrupting interaction strength | K539A
